Assay results from the nanobody polyreactivity screen of Harvey et al. (2022).

Assay: yeast display, Sf9 membrane polyspecificity reagent, FACS + sequencing; frameworks hold sequencing errors
How it was run: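 Galactose-induced (36–48 hours) yeast carrying a synthetic nanobody display library were exposed to 10% biotinylated, detergent-solubilized Sf9 membrane reagent at 4 °C for 1 hour. FACS followed streptavidin microbead enrichment, using low and high (top ~1%) gates for expression (anti-HA) and reagent binding (streptavidin). Colony PCR, MiSeq 2 × 250 sequencing and CDR-length filtering followed. Labels for polyreactivity reflect the gate of origin.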

| Sequence | polyreactivity (PSR sort gate) |
| --- | --- |
| QVQLVETGGGIVQAGGSLRLSCAASGSTFDGYVMGWYRQEPGKERELVAAISGSGGSTYYADSVKGRFTISRDNAKNTVYFELYSLKPEDTSVYYCAADSWWYDDYSEGDYWGQGTQVTVSS | low polyreactivity |
| QVQLVETGGGIVQAGGSLSLSCAASGRIFSPYAMGWYRQAPGKERELVAAISYDDGITYYADSVKGRFTISRDNAKNTVYLQMISLKPEDTAVYYCAADSVTRPAGDYWGQGTQVTVSS | low polyreactivity |
| QVQLVETGGGIVQARGRLRLSCAASVITFTGYAMGWYRPAPGKERELVAAITSGGGRTYYADSVKGRFTISRDNAKNTVYLLMNSLKPEDTAVYYCNARGQSRYGYWGQGTQVTVSS | high polyreactivity |
| QVQLVETGGGLDQAGGSLRLSCAASGRTFLLYAMGWYRQAPGKERELVARITGRGGRTYYADSVKGRFTISRDNAKNTVYLQMNSLKPEDTAVYYCNAKGYQGQWERYDYWGQGTEVTVSS | high polyreactivity |
| QVQLVETGGGLDQAGVSLRLSCAASGSIFGYNDMGWYRQAPGKERELVAAIDCSDDITYYADSVKGRFTISRDNAKNTVYLQMYSLKPEETAVYYCAAVYYYYQYWAHTYYAGMEYWGQGTQVTVSS | high polyreactivity |
| QVQLVETGGGLVKAGGSLRLSCAASGITFSVYTMGWDRQAPGKERELVASITRSVGSTYYADSVKGRFTISRDNAKNTVYLQMNSLKPEDTAVYYCAARRTVVTGRYYWGQGTQVTVSS | high polyreactivity |
| QVQLVETGGGLVKAGGSLRLSSAASGSIFVYYVMGWYRQAPGKERELVAAINSDGDGTYYADSVKGRFTISRDNAKNTVYLQMNSLKPEDTAVYYCAASAFTGVDTYGYGGQGTQVTVSS | low polyreactivity |
| QVQLVETGGGLVPAGGSLRLSCAASGSTFQRYAMGWYRQAPGKERELVAAITWSGGSTKYADSVKGRFTISRDNAKNTVYLQMNSMKPEDTAVYYCARTYGSSRWGQGTQVTVSS | low polyreactivity |
| QVQLVETGGGLVQAGGILRLSCAASGRIFGYNTMGWYRQAPGKERELVARISYDVDSTYYADSVKGRFTISRDNAKNTVYLQMNSLKPEDTAVYYCNARRSNLGSYIEYFGFDYWGQGTQVTVSS | low polyreactivity |
| QVQLVETGGGLVQAGGSHRLSCAASGYIFFGNAMGWYRQAPGKERELVASIRWRGTSTYYADSVKGRFTISRDNAKNTGYLHMNSLKPEDTAVYYCAADVVRSNFYGTFLYDYDYWGQGTQVTVSS | low polyreactivity |
| QVQLVETGGGLVQAGGSLRISCAASGLILDGYALGWYRQAPGKERELVAAITRSGGRTYYADSVKWRFTISRDNAKNTVYLQMNRLKPEDTAVYDCAALGWSGRYRYDYWGQGTLVTVSS | high polyreactivity |
| QVQLVETGGGLVQAGGSLRISCAASGLTFYLYAMGWYRQSPGKERELVAAISSTGITNYADSVKGRFTISRDNAKNTVYLQMNSLNPEDTAVYYCNADYHPFFFEFNDWGQGTQVTVSS | high polyreactivity |
| QVQLVETGGGLVQAGGSLRLICAASGSTFWRNAMGWYRQAPGKERELVATISKSGGRTYYADSVKGRFTISRDNAKNTVYLQMNRLKPEDTAVYYCAADQYWYKPYVGELYDYDYWGQGTQVTVSS | low polyreactivity |
| QVQLVETGGGLVQAGGSLRLRCAASGSIFGGYAMGWYRQAPGKERELVAAISSGGSTYYADSVKGRFTISRDNAKNTVYLQMNSLKPEDTAVYYCATSTYAYRRNSYYYTRPRFGYWGQGTQVTVSS | high polyreactivity |
| QVQLVETGGGLVQAGGSLRLSCAASGFIFGYYAMGWYRQAPGKERELVADITSGGSTYYADSVKGRFIISRDNAKNTVYLQMNSLKPEDTAVYYCNKAWELVSQSLYYTEYNYWGQGTQVTVSS | low polyreactivity |
| QVQLVETGGGLVQAGGSLRLSCAASGFIFHPNTMGWYSPAPGKERELVAGISYSGGITYTDSVKGRFTISRDNAKNTVYLQMNSLKPEDTAVYYCSAGDKYHYYWGQGTQVTVSS | low polyreactivity |
| QVQLVETGGGLVQAGGSLRLSCAASGFILSLYAMGWYRQAPGKERELVAAISRSGASTSYADSVKGRFTISRDNAKNSVYLQMNSLKPEDTAVYYCNVRRWPYSPGYDYWGQGTQVTVSS | high polyreactivity |
| QVQLVETGGGLVQAGGSLRLSCAASGFTFEGYAMGWYRQAPGKERELVAAINGSGGSTYYADSVKGRFTISRDNAKNTVYLQMNSLKPEDTAVYYCAKTDAFYRGYGYWGQGTQVTVSS | low polyreactivity |
| QVQLVETGGGLVQAGGSLRLSCAASGFTFPNAMGWYRQAPGKERELVATISSSGGSTYYADSVKGRFTISRDNAKNTVYLQMNSLKPEDTEVYYCAASTRQYWIYRAYRDEYWGQGTQVTVSS | low polyreactivity |
| QVQLVETGGGLVQAGGSLRLSCAASGFTFTSYAMGWYRQAPGKERELVARITSSTGSTYYADSVKGRFTISRDNAKNTVDLQMNSMKPEDTAVYYCNARRQRNKSYNYWGQGTEVTVSS | high polyreactivity |
| QVQLVETGGGLVQAGGSLRLSCAASGGIFYPNDMGWYRQAPGKEREFVAAITSSSGSTYADSVKGRFTISRDNAKNTVYLQMNSLKPEDTAVYYCATPPDDKGGGYLGYDYWGQGTQVTVSS | low polyreactivity |
| QVQLVETGGGLVQAGGSLRLSCAASGITFRGYAMGWYRQAPGKERELVAAISGSGGTTYYADSVKGRFTISRDNAKNTVYLQMNSLKPEDTAVYYCNAKAVRGRYVWYDYWGQGTQVTVSS | high polyreactivity |

| Sequence | polyreactivity (PSR sort gate) |
| --- | --- |
| QVQLVETGGGLVQAGGSLRLSCAASGLSFGRNAIGSYRQAPGKERELVAAISRSGGRTSYADSVKGRFTISRDTAKNTVYLQMNSLKPEDTAVYYCAARSDVYTHDYWGQATQVTVSS | high polyreactivity |
| QVQLVETGGGLVQAGGSLRLSCAASGRIFGYYTMGWYRPAPGKERELVADSSGGNTSYADSVKGRFTISRDNAKNTVYLQMNSLKPEDTAVYYCAKDLPGAWRGDDYWGQGTLVTVSS | low polyreactivity |
| QVQLVETGGGLVQAGGSLRLSCAASGRIFLKYAMGWYRQAPGKERELVAAISRRGASTYYADSVKGRFTISRDNAKNTVYLQMNSLKPEDTAVYYCNARTSSGMDYWGQGTQVTVSS | high polyreactivity |
| QVQLVETGGGLVQAGGSLRLSCAASGRIFRTNAMGWYRQAPGKEREFVAAISKDGGRTYYADSVKGRFTISRDNAKNTVYLQMNSLKPEDTAVYYCNARHRYYRYGYWGQGTQVTVSS | high polyreactivity |
| QVQLVETGGGLVQAGGSLRLSCAASGRTFGYYTMGCYRQAPGKERELVAGISSAGSTNYADSVKGRFTISRDNAKNTVYLQMNSLKPADTAVYYCAARTYKVIQNNSWETYYYWGQGTQVTVSS | high polyreactivity |
| QVQLVETGGGLVQAGGSLRLSCAASGRTFHRYAVGWYRQAPGKVRELVAAISFSGGSTYYADSVKGRFTISRDNAKNTVYLQMNSLKPEDTAVYYCAPRAVWSSWGRRYDSWGEGTQVTVSS | high polyreactivity |
| QVQLVETGGGLVQAGGSLRLSCAASGRTFTGNAMGWYRQEPGKERELVADISSDGSTNYADSVKGRFTISRDNAKNTVYLQMNSLKPEDTAVYYCAADPFWTYYIDYDYWGQGTQVTVSS | low polyreactivity |
| QVQLVETGGGLVQAGGSLRLSCAASGRTIGFYAMGWYRQAPGKERELVAAINRSGDSTYYADSVKGRFTISRDNAKNTVYLHMNSLKPEDTAVYYCAARRSTGYGYWGQGTQVTVSS | high polyreactivity |
| QVQLVETGGGLVQAGGSLRLSCAASGSIFGPYAMAWYRQAPGKERELVAVISRSGGSTYYADSVKGRFTISRDNAKNTVYLQMNSLKPEDTAVYYCAAYRGPRADYYWGQGTQVTVSS | high polyreactivity |
| QVQLVETGGGLVQAGGSLRLSCAASGSIFHYYAKGWYRQAPGKERELVAAISWSGVTTYYADSVKGRFTISRDNAKNTVYLQMNSLKPEDTAVYYCAADSWRYPYYYWGQGTQVNVSS | high polyreactivity |
| QVQLVETGGGLVQAGGSLRLSCAASGSIFLVYAMGWNRPAPGKQRQVVAAIRWSGGSTYYADSVKGRFTISRDNAKKTVYLQMNSLKPEDTAVYYCNAGESYSVKGGPYDSDYWGQGTQVTVSS | low polyreactivity |
| QVQLVETGGGLVQAGGSLRLSCAASGSIFTKYAMGRYRQAPGKERELVAAISWSGVSTYYADSVKGRFTISRDNAKNTVYLLMNSLKPEDTAVYYCNTRRYRSYGTTRYCFWGQGTQVTVSS | high polyreactivity |
| QVQLVETGGGLVQAGGSLRLSCAASGSIFYAYAMGWYRQAPGKERELVATITSGGSTNYADSVKGRFTISRDNAKNTVYLQMNSLKPEDTAVYYCAVDISYSLGGGFGYDYWGQGTQVTVSS | low polyreactivity |
| QVQLVETGGGLVQAGGSLRLSCAASGSTFAKYVMGWYRPAPGKERELVAAISRRGSSTYYADSEKGRFTISRDYAKNTVYLQMNSLKPEDTAVYYCAARFRYSGFEGMDYWGQGNQVTVSS | high polyreactivity |
| QVQLVETGGGLVQAGGSLRLSCAASGSTFDYNAMGWYRQAPGKERELVASITESGDSTYYADSVKGRFTISRDNAKNTVYLQMNSLKPEDTAVYYCAATQVHWVYVVYYEYEYWGQGTQVTVSS | low polyreactivity |
| QVQLVETGGGLVQAGGSLRLSCAASGSTFEYNAMGWYRQAPGKERALVAGISSGGSTYYADSVKGRFTISRDNAKNTVYLQMNSLKPEDTAVYYCATSEASFATWDRYTELDYWGQGTQVTVSS | low polyreactivity |
| QVQLVETGGGLVQAGGSLRLSCAASGSTFGGYAMGWYRQAPGKERELVATITGGGSTNYADSVKGRFTISRDNAKNTVYLQMNSLKPEDSAVYYCAKVRTGQSRSVGYDYWGQGTQVTVSS | low polyreactivity |
| QVQLVETGGGLVQAGGSLRLSCAASGSTFKGYAMGWYRQSPGKERELVAAISRSGTRTYYADSVKGRFTISRDNAKNTVYLQMNSLKPEDTAVSFCNKDTGYIAHDNENGRDYWGQGTQVTVSS | low polyreactivity |
| QVQLVETGGGLVQAGGSLRLSCAASGSTFRFYVMGWYRQAPGKERELVAAISTSGGSTYYADSVKGRFTISRDTAKNTVYLQMNSLKPEDTAVYYCAADLIASLRPYYQYDYWGQGTQVTVSS | low polyreactivity |
| QVQLVETGGGLVQAGGSLRLSCAASGSTFTRYGMGWYRQAPGKERELVADITTSGSSTYYADSVKGRFTISRDNAKNTVYLQMNSLKPEDTAVYYCAADWSSWGFDYWGQGTQVTVSS | low polyreactivity |
| QVQLVETGGGLVQAGGSLRLSCAASGSTFYKYGMGWYRPAPGKERELVAAISGSGDSTYYADSVKGRFTISRDNAKNTVYLQMNSLKPEDTAVSYCNAGPWWFLHEYDYWGQGTQVTVSS | low polyreactivity |
